Measured values from PMC7427093, “Revising the mechanism of p75NTR activation: intrinsically monomeric state of death domains invokes the "helper" hypothesis” (Scientific Reports, 2020).
Values joined by “and” are separate entries in the source; they are usually repeats but may differ in a detail not shown here. Equal entries are not always repeated.

B1: rP75-ΔECD-3CX-249C: rat p75NTR residues 245-425 with T249C, C279S, C379S, C416S (domain or fragment, UniProt P07174 245-425, looked up)
chain: TRGTCDNLIPVYCSILAAVVVGLVAYIAFKRWNSSKQNKQGANSRPVNQTPPPEGEKLHSDSGISVDSQSLHDQQTHTQTASGQALKGDGNLYSSLPLTKREEVEKLLNGDTWRHLAGELGYQPEHIDSFTHEASPVRALLASWGAQDSATLDALLAALRRIQRADIVESLSSESTATSPV
notes: p75 neurotrophin receptor (p75NTR), rat, UniProt P07174, residues 245-425 (transmembrane and intracellular domains); also called T249C mutant; p75-ΔECD-T249C; source: also in the membrane fraction of E. coli, not purified

How the values were obtained:
[1] = biological target: p75NTR death domain (Homo sapiens) (UniProt P08138); experiment: homo-FRET; conditions: cited from earlier work
[2] = biological target: the molecule itself; experiment: cross-linking; spontaneous disulfide formation of purified protein in DMPC/CHAPS q = 1 bicelles, LPR 1,000:1 (repeated at 200:1), without reducing agent, room temperature; non-reducing SDS-PAGE at several time points; irreversible second-order kinetics

| Molecule | Kd [1] [µM] | stoichiometry N [2] |
| --- | --- | --- |
| p75NTR death domain (from UniProt P08138) | 49 |  |
| B1 |  | 2 and 4 and 6 |
